From patent US9360484B2, “Anti-FcRH5 antibodies and immunoconjugates and methods of use” (Genentech, Inc., priority 2009, dated 2016)

T1: human FcRH5 (Homo sapiens, UniProt Q96RD9, G418D/L733P/S890P/V466I/Y267H)
T1 construct: expressed in transfected cells; host or cells: OPM2 multiple myeloma cells
T1 sequence (Q96RD9 16-977 Y267H/G418D/V466I/L733P/S890P): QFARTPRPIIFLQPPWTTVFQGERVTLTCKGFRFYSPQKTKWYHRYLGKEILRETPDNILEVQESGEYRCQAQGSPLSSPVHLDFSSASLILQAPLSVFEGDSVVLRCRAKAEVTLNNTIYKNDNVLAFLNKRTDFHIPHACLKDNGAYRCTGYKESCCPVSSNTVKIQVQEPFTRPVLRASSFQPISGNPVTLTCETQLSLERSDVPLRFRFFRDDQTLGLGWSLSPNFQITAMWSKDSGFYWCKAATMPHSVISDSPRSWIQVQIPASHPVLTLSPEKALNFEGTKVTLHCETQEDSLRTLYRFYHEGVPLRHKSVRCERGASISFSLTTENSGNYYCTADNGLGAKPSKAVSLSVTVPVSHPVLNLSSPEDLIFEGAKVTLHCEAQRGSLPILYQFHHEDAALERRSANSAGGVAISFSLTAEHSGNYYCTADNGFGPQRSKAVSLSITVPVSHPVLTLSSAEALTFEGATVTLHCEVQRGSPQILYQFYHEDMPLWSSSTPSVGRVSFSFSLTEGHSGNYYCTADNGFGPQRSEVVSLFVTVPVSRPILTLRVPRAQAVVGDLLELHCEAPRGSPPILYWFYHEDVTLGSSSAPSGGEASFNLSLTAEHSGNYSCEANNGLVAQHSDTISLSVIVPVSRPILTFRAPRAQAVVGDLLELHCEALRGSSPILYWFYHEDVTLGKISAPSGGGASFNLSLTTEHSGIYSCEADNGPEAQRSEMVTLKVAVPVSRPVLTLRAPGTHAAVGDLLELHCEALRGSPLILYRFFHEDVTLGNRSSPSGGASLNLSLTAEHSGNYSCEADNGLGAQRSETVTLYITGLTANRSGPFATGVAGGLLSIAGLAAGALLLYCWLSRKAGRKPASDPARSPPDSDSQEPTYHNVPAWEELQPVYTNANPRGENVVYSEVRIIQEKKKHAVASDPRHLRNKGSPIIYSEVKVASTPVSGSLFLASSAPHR

T2: human FcRH5 (Homo sapiens, UniProt Q96RD9)
T2 construct: vectors that expresses the His-tagged extra-cellular domain (ECDs) of the FcRH5/IRTA2 into CHO cells; His tag (HIS6); made in house; host or cells: CHO cells (transient transfection)
T2 sequence (Q96RD9 16-851 limits assumed): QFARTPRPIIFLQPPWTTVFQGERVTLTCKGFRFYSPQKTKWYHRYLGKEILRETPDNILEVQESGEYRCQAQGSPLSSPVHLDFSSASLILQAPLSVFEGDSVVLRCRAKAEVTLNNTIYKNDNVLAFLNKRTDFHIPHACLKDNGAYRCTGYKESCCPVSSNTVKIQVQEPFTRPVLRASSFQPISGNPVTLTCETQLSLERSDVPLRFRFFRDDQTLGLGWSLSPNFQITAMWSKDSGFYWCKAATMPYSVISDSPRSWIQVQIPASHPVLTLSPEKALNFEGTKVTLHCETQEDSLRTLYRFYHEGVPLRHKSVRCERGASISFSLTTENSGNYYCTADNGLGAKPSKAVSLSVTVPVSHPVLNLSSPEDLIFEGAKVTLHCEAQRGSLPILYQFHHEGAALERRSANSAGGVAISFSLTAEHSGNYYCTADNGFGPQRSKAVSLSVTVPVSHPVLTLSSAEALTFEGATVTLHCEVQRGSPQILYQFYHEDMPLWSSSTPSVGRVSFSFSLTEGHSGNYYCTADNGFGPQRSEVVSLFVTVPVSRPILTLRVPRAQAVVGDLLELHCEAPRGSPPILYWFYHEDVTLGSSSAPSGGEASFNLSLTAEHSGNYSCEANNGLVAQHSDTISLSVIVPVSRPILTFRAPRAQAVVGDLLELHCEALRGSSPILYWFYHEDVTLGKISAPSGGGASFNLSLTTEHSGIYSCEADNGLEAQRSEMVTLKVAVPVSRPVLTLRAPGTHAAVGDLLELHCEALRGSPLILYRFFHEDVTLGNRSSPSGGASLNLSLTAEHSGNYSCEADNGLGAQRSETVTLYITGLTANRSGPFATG

B1: hu10A8 v1: humanized 10A8 antibody, variable domains SEQ ID NO: 19 and SEQ ID NO: 21 (antibody, V domains shown)
VH: EVQLVESGGGLVQPGGSLRLSCAASGFTFSSYAVSWVRQAPGKGLEWVATISSGGSLTFYLDSVRGRFTISRDNSKNTLYLQMNSLRAEDTAVYYCARPIPDYYALDYWGQGTLVTVSS
VL: DIQMTQSPSSLSASVGDRVTITCKASQDVSTAVAWYQQKPGKAPKLLIYSASYRYTGVPSRFSGSGSGTDFTLTISSLQPEDFATYYCQQHFSSPRTFGQGTKVEIKR
B2: 10A8: murine anti-FcRH5 monoclonal antibody, light chain variable domain SEQ ID NO: 18, heavy chain variable domain SEQ ID NO: 20 (antibody, listed as Mus musculus, V domains shown)
VH: EVQLVESGGGLVKPGGSLKISCAASGFTFSSYAVSWVRQTPEKRLEWVATISSGGSLTFYLDSVRGRFTISRDNAKNTLYLQMSSLRSEDTAMYYCARPIPDYYALDYWGQGTSVTVSS
VL: DIVMTQSHKFMSTSVRDRVSITCKASQDVSTAVAWYQQKPGQSPKLLIYSASYRYTGVPDRFTGSGSGTDFTFTISSVQAEDLAVYYCQQHFSSPRTFGGGTKVEIKR
modifications: Variable Domain of Heavy Chain of Humanized Antibody (mu10A8)
B3: 13G9: murine monoclonal antibody binding human FcRH5 (antibody, V domains shown)
VH: EVQLVQSGPELKKPGETVKISCKASGYTFTNYGMNWVKQAPGKGLKWMGWVNTYTGEPTYTDDFKGRFAFSVETSASTVFLQINNLKNEDTATYFCARRSIPYYYAMDYWGQGTSLT
VL: DIVMTQSQKIMSTSVGDRVNVTCKASQNVGSNVAWYHQKPGQSPKALIYSASYRYSGVPDRFTGSGSGTDFTLTISNVQSEDLAEYFCQQYKTWTFGGGTKLEIKR

Tests used:
[1] = target: T1, human FcRH5; test: Affinity determination (Scatchard analysis) on cells expressing human FcRH5; format: binding; settings: by FACS and Scatchard analysis
Method: To further determine binding of the FcRH5 murine antibodies and IgG clones, binding of iodinated IgG variants to OPM2 cells expressing human FcRH5 and SVT2 cells expressing cynomologous FcRH5, Scatchard analysis was performed.
After a four hour incubation at 4° C., cells were washed and cell pellet counts were read by a gamma counter (1470 WIZARD Automatic Gamma Counter; Perkin Elmer, Walthem, Mass.). All points were done in triplicate and counted for 10 minutes. The average CPM was used for Kd calculation using the New Ligand (Genentech, South San Francisco, Calif.) program.

[2] = tested on: OPM2.CMV.PD.FcRH5.5P.2 cells; test: In vitro cell proliferation assay (CellTiter-Glo Luminescent Cell Viability Assay); format: cell-based, human; settings: OPM2.CMV.PS.FcRH5.5P.2 cells, 3 days incubation
Description: The homogeneous “add-mix-measure” format results in cell lysis and generation of a luminescent signal proportional to the amount of ATP present. The substrate, Beetle Luciferin, is oxidatively decarboxylated by recombinant firefly luciferase with concomitant conversion of ATP to AMP and generation of photons. Viable cells are reflected in relative luminescence units (RLU). Data can be recorded by luminometer or CCD camera imaging device. […] Alternatively, photons from luminescence can be counted in a scintillation counter in the presence of a scintillant.
3. The plates were equilibrated to room temperature for approximately 30 minutes.
5. The contents were mixed for 2 minutes on an orbital shaker to induce cell lysis.
6. The plate was incubated at room temperature for 10 minutes to stabilize the luminescence signal.

[3] = tested on: human FcRH1-6; test: FACS cross-reactivity analysis on SVT2 cells stably expressing gD tagged huFcRH1-6; format: binding; settings: 1.0 ug Ab (or 100 μl hybridoma supernatant) per 10^6 SVT2 cells expressing gD tagged huFcRH1-6
Method: To determine the cross-reactivity of FcRH5 antibodies, binding of IgG variants to SVT2 cells, expressing human FcRH1-6 were analyzed using FACS analysis.
Briefly, approximately 10^6 cells of SVT2 cells stably expressing gD tagged huFcRH1-6 in 100 μl were incubated with 1.0 ug of murine or chimeric Ab [Mu anti-gD (positive control), Mu anti-FcRH5 (1H4) (“mu1H4”), Mu anti-FcRH5 (4D10) (“mu4D10”), Mu anti-FcRH5 (6H1) (“mu6H1”), Mu anti-FcRH5 (7D11) (“mu7D11”), Ch anti-FcRH5 (7D11) (“ch7D11”), Mu anti-FcRH5 (8116) (“mu8H6”), Mu anti-FcRH5 (9E2) (“mu9E2”), or Mu anti-FcRH5 (13G9) (“mu13G9”)]. Incubation of SVT2 cells stably expressing the empty vector was incubated with the same antibodies and used as a negative control. PE conjugated Rat anti-MuIgG1, Rat anti-MuIgG2a+b, or Mu anti-HuIgG was used as the secondary detection antibody.
To further determine the cross-reactivity of FcRH5 antibodies, binding of IgG variant supernatants to SVT2 cells, expressing human FcRH1-6 were analyzed using FACS analysis.
Briefly, approximately 10^6 cells of SVT2 cells stably expressing gD tagged huFcRH1-6 were incubated with 1.0 μg purified Ms anti-gD antibody or 100 μl (concentration unknown) of murine Ab hybridoma supernatant (Mu anti-FcRH5 (10A8) (“mu10A8”), Mu anti-FcRH5 (10F5) (“mu10F5”)). […]

[4] = tested on: cynomolgus FcRH5; test: Cyno cross-reactivity by FACS on stably transfected cells (SVT2 cells expressing cynoFcRH5); format: binding, cynomolgus monkey; settings: 1.0, 0.1 or 0.01 μg antibody per million SVT2 cells stably expressing cynoFcRH5
Method: For additional FACS analysis of FcRH5 antibodies, 1.0 μg, 0.1 μg or 0.01 μg of antibody was titrated per million cells of BJAB cells stably expressing huFcRH5 and SVT2 cells stably expressing cynoFcRH5. Briefly, approximately 10^6 cells in 100 μl were incubated with varying amounts (1.0 ug, 01. ug or 0.01 ug) of murine Ab mu1H4, mu6H1, mu7D11, mu9E2, mu10A8, mu10F5, or mu13G9 per million cells of BJAB cells stably expressing huFcRH5 and SVT2 cells stably expressing cynoFcRH5. Incubation with 1.0 ug/10^6 cells of the appropriate Mu IgG isotype control was used as a negative control. PE conjugated Rat anti-MuIgG1 or Rat anti-MuIgG2a+b was used as the secondary detection antibody.

[5] = target: T2, human FcRH5; test: Affinity determination (Biacore analysis) of murine anti-FcRH5 IgGs; settings: murine IgG captured on chip, 25° C., 1:1 Langmuir binding model; read-out: Affinity (Biacore) to Hu antigen
Method: The FcRH-binding affinities of IgGs were calculated from association and dissociation rate constants measured using a Biacore 2000 surface plasmon resonance system (BIAcore, Inc.). A biosensor chip was activated for covalent coupling of either anti-murine IgG (BR-1008-338) using N-ethyl-N′-(3-dimethyaminopropyl)-carbodiimide hydrochloride (EDC) and N-hydroxysuccinimide (NHS) according to the supplier's instruction (BIAcore, Inc.). Briefly, for each cycle of kinetic analysis, 5 ul of 100 nM IgG was captured on the chip, two-fold serial dilution of various FcRHs were injected at a flow rate of 20 ul/min for 150 sec. Antigen dissociation was monitored for 180 sec before regeneration. Equilibrium dissociation constants at 25° C. were calculated by fitting the data with a 1:1 Langmuir binding model. Running buffer was PBS with 0.05% Tween −20. All the antibodies bound antigen with sufficient affinity to be used as a therapeutic.

Sequence of cynomolgus FcRH5 (as listed by the source): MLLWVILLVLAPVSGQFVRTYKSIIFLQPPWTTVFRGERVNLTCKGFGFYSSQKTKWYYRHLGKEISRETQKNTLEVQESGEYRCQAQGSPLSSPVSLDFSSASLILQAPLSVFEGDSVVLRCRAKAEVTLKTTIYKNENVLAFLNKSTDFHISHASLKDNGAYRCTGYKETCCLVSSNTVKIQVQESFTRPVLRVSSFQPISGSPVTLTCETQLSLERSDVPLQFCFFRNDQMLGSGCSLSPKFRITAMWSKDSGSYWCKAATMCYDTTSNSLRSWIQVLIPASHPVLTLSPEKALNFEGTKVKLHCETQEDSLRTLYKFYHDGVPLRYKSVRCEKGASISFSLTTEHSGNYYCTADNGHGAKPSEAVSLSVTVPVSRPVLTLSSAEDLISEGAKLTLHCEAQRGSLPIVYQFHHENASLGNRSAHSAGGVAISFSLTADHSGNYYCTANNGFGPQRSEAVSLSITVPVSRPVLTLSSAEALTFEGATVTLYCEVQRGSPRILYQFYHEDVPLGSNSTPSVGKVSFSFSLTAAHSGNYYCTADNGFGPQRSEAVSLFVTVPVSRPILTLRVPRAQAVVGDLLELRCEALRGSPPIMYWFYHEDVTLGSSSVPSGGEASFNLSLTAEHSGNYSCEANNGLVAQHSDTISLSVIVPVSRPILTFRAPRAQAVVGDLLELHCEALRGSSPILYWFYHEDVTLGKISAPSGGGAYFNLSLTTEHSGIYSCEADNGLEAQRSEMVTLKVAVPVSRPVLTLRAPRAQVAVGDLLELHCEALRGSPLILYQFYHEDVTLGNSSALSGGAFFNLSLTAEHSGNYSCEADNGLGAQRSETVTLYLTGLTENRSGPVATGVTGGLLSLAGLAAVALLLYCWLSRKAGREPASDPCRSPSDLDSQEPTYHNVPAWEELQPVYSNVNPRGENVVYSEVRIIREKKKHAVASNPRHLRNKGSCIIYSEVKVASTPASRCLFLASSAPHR

Molecule | relative binding affinity of humanized version 1 and the chimera [1] | in vitro cell growth inhibition (in words) [2] | specificity of binding among huFcRH1-6 by FACS [3] | cross reaction with cynomolgus FcRH5 by FACS analysis [4] | Kd [5] [nM]
B1 | equivalent to the chimera | no in vitro cell growth inhibition | – | – | –
B2 | – | – | specifically bind FcRH5 | cross react with cynomolgus FcRH5 | –
B3 | – | – | – | cross react with cynomolgus FcRH5 | 19
